To fix the notation:
B1: H3 (1–12) peptide (peptide)
peptide: ARTKQTARKSTG
notes: histone H3 residues 1-12; also called H3T3 nonphosphopeptide; nonphosphorylated H3 peptide; source: synthetic peptide (Peptide Protein Research Ltd)
B2: INCENP^1-80 (recombinant) (domain or fragment, human, UniProt Q9NQS7 1-80, looked up)
chain: MGTTAPGPIHLLELCDQKLMEFLCNMDNKDLVWLEEIQEEAERMFTREFSKEPELMPKTPSQKNRRKKRRISYVQDENRD
notes: INCENP, human, residues 1-80; Subunit in the rows of two; also called I^80; source: E. coli BL21-CodonPlus (DE3)-RIL, purified within the complex; not shown: His6, N-terminal, cleaved; GST, N-terminal, cleaved
B3: H3pT3 (1–12) phosphopeptide (peptide)
peptide: AR[pT]KQTARKSTG
notes: also called pH3T3; H3pT3 phosphopeptide; source: synthetic peptide (Peptide Protein Research Ltd)
B4: borealin^10-109 (domain or fragment, human, UniProt Q53HL2 10-109, looked up)
chain: VAKTNSLRRRKLASFLKDFDREVEIRIKQIESDRQNLLKEVDNLYNIEILRLPKALREMNWLDYFALGGNKQALEEAATADLDITEINKLTAEAIQTPLK
notes: borealin, human, residues 10-109; Subunit in the rows of two; source: E. coli BL21-CodonPlus (DE3)-RIL, co-expressed with survivin (pETDuet-1), purified within the complex
B5: GFP-MKLP2 Δ636-652 (natural protein, human, UniProt O95235 1-890, looked up)
chain: MSQGILSPPAGLLSDDDVVVSPMFESTAADLGSVVRKNLLSDCSVVSTSLEDKQQVPSEDSMEKVKVYLRVRPLLPSELERQEDQGCVRIENVETLVLQAPKDSFALKSNERGIGQATHRFTFSQIFGPEVGQASFFNLTVKEMVKDVLKGQNWLIYTYGVTNSGKTHTIQGTIKDGGILPRSLALIFNSLQGQLHPTPDLKPLLSNEVIWLDSKQIRQEEMKKLSLLNGGLQEEELSTSLKRSVYIESRIGTSTSFDSGIAGLSSISQCTSSSQLDETSHRWAQPDTAPLPVPANIRFSIWISFFEIYNELLYDLLEPPSQQRKRQTLRLCEDQNGNPYVKDLNWIHVQDAEEAWKLLKVGRKNQSFASTHLNQNSSRSHSIFSIRILHLQGEGDIVPKISELSLCDLAGSERCKDQKSGERLKEAGNINTSLHTLGRCIAALRQNQQNRSKQNLVPFRDSKLTRVFQGFFTGRGRSCMIVNVNPCASTYDETLHVAKFSAIASQLVHAPPMQLGFPSLHSFIKEHSLQVSPSLEKGAKADTGLDDDIENEADISMYGKEELLQVVEAMKTLLLKERQEKLQLEMHLRDEICNEMVEQMQQREQWCSEHLDTQKELLEEMYEEKLNILKESLTSALLQEARQQSVAHQQSGSELALRRSQRLAASASTQQLQEVKAKLQQCKAELNSTTEELHKYQKMLEPPPSAKPFTIDVDKKLEEGQKNIRLLRTELQKLGESLQSAERACCHSTGAGKLRQALTTCDDILIKQDQTLAELQNNMVLVKLDLRKKAACIAEQYHTVLKLQGQVSAKKRLGTNQENQQPNQQPPGKKPFLRNLLPRTPTCQSSTDCSPYARILRSRRSPLLKSGPFGKKY
notes: source: HeLa, transfected, in lysate; not shown: EGFP, N-terminal, kept
B6: MKLP2^557-668 (domain or fragment, human, UniProt O95235 557-668, looked up)
chain: MYGKEELLQVVEAMKTLLLKERQEKLQLEMHLRDEICNEMVEQMQQREQWCSEHLDTQKELLEEMYEEKLNILKESLTSFYQEEIQERDEKIEELEALLQEARQQSVAHQQS
notes: source: E. coli BL21-CodonPlus (DE3)-RIL, purified (Glutathione Sepharose, SEC); not shown: His6, N-terminal, cleaved; GST, N-terminal, cleaved

Data set [1] concerns the target CPI58 as used in ITC, SEC and ATPase assays (survivin, borealin, INCENP 1–58) (human, UniProt O15392 1-142; Q9NQS7 1-58; Q53HL2 1-280, Structural Zn2+ on survivin C57/C60/H77/C84. Survivin is taken from the authors' construct entity (entity number = survivin number + 2; leading GP tag scar left out). Borealin 10-109 is inferred from). The experiment in a line: ITC; 400 µM peptide injected into 50 µM protein; 100 mM NaCl, 20 mM Tris-HCl pH 7.2, 1 mM DTT; 25°C; 1:1 binding model. The following applies: both partners purified.

Data set [2] has as its target T1, MKLP2^557-668:CPI80 (survivin, INCENP^1-80, borealin^10-109) (human, UniProt O95235 557-668; O15392 1-142; Q9NQS7 1-80; Q53HL2 10-109).
T1 construct: survivin, human; INCENP, human, residues 1-80; borealin, human, residues 10-109; also called MKLP2:CPI80; not shown: His6, N-terminal, cleaved; GST, N-terminal, cleaved; copies: 2 + 2 + 2 + 2
Described as above. The following applies: both partners purified.

Data set [3] deals with T2, CPI80 (survivin, INCENP^1-80, borealin^10-109) (human, UniProt O15392 1-142; Q9NQS7 1-80; Q53HL2 10-109).
T2 construct: survivin, human; INCENP, human, residues 1-80; borealin, human, residues 10-109; 1:1:1 trimer by SEC-MALS; also called WT CPI80; source: E. coli BL21-CodonPlus (DE3)-RIL, purified (Glutathione Sepharose, SEC); not shown: His6, N-terminal, cleaved; GST, N-terminal, cleaved; copies: 1 + 1 + 1
The description is as above. The following applies: both partners purified.

The target in data set [4] is T3, CPI80^RRKKRR (CPI80 with the INCENP RRKKRR-motif replaced with alanine residues) (human, UniProt O15392 1-142; Q9NQS7 1-80; Q53HL2 10-109, RRKKRR to hexa-alanine).
T3 construct: survivin, human; INCENP, human, residues 1-80 with RRKKRR to hexa-alanine; borealin, human, residues 10-109 as in CPI80; not restated for this mutant; also called CPI80^RRKKRR mutant; source: E. coli BL21-CodonPlus (DE3)-RIL, purified (Glutathione Sepharose, SEC); not shown: His6, N-terminal, cleaved; GST, N-terminal, cleaved; copies: + +
The data set is described as above. The following applies: both partners purified.

Data set [5] addresses T4, survivin (full-length, recombinant, as subunit of the CPI complexes) (human, UniProt O15392 1-142).
T4 construct: survivin, human, full length; Never handled alone; stands for the subunit in the rows of two; source: E. coli BL21-CodonPlus (DE3)-RIL, co-expressed with borealin (pETDuet-1), purified within the complex
Kind of data set: SEC-MALS; samples at 1 mg/ml on Superose 6 10/300 GL, room temperature; 100 mM NaCl, 20 mM Tris-HCl pH 8.0, 1 mM DTT, 10% glycerol. The following applies: both partners purified.

The target of data set [6] is B4. The data set is described as above. The following applies: both partners purified.
The target of data set [7] is CPI58 as used in ITC, SEC and ATPase assays (survivin, borealin, INCENP 1–58) (human, UniProt O15392 1-142; Q9NQS7 1-58; Q53HL2 1-280). Kind of data set: ITC; 400 µM peptide injected into 50 µM protein; 100 mM NaCl, 20 mM Tris-HCl pH 7.2, 1 mM DTT; 25°C; 1:1 binding model. The conditions noted are these: both partners purified. A general note: Isothermal titration calorimetry measures the heat released or taken up as one component is titrated into another.

Data set [8] deals with the molecule itself. Kind of data set: SEC; 1 mg lysate of nocodazole-arrested HeLa cells on Superose 6 10/300 at 4°C; fractions Western blotted for MKLP2 and GFP; size from calibration standards.
Data set [9] deals with the molecule itself. The experiment in a line: SEC-MALS; samples at 1 mg/ml on Superose 6 10/300 GL, room temperature; 100 mM NaCl, 20 mM Tris-HCl pH 8.0, 1 mM DTT, 10% glycerol. (Size exclusion chromatography separates by hydrodynamic size, large species first.)
Data set [10] concerns the target T5, CPI80^(Survivin E65A-H80A) (human, UniProt O15392 1-142; Q9NQS7 1-80; Q53HL2 10-109, E65A | H80A).
T5 construct: survivin, human, E65A H80A; INCENP, human, residues 1-80; borealin, human, residues 10-109 as in CPI80; not restated for this mutant; also called CPI80^E65A-H80A; survivin^E65A-H80A CPI80; source: E. coli BL21-CodonPlus (DE3)-RIL, purified (Glutathione Sepharose, SEC); not shown: His6, N-terminal, cleaved; GST, N-terminal, cleaved; copies: + +
Kind of data set: SEC; CPC variants and MKLP2^557-668 mixed 1:1, 30 min on ice in 100 mM NaCl, 20 mM Tris-HCl pH 8.0, 1 mM DTT, 10% glycerol; analytical Superdex 200 increase 10/300 at 4°C; fractions on stained gels. The following applies: both partners purified.

Square brackets hold non-standard residues; d marks the D form. Ends that are not written are not given here. pT = C[C@@H](OP(=O)(O)O)[C@H](N)C(=O)O

T3 sequence (O15392 whole entry, change not shown, chain 1 of 3, one chain of several, the tested form may be a part): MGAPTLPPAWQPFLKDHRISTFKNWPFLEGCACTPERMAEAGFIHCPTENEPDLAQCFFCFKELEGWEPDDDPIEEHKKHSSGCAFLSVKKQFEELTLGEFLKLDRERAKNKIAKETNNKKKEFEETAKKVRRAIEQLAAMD
T3 sequence (Q9NQS7 other isoform, or with tags, fused parts or gaps RRKKRR to hexa-alanine | RRKKRR to hexa-alanine, chain 2 of 3, one chain of several): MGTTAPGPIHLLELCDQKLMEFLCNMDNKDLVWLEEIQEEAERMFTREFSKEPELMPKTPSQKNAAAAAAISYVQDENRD
T4 sequence (O15392 whole entry, one chain of several): as the sequence (O15392 whole entry, change not shown, chain 1 of 3, one chain of several, the tested form may be a part) above
T2 sequence (O15392 whole entry, chain 1 of 3, one chain of several, the tested form may be a part): as the sequence (O15392 whole entry, change not shown, chain 1 of 3, one chain of several, the tested form may be a part) above
Sequence of CPI58 as used in ITC, SEC and ATPase assays (survivin, borealin, INCENP 1–58) (human, UniProt O15392 1-142; Q9NQS7 1-58; Q53HL2 1-280, Structural Zn2+ on survivin C57/C60/H77/C84. Survivin is taken from the authors' construct entity (entity number = survivin number + 2; leading GP tag scar left out). Borealin 10-109 is inferred from) (A2SUH6 whole entry, chain 1 of 3, one chain of several): as the sequence (O15392 whole entry, change not shown, chain 1 of 3, one chain of several, the tested form may be a part) above
T5 sequence (O15392 whole entry E65A/H80A, the tested form may be a part, one chain of several): as the sequence (O15392 whole entry, change not shown, chain 1 of 3, one chain of several, the tested form may be a part) above, with E65A, H80A counted along it

In general, Kd refers to the concentration at which binding is half-saturated. Regarding B1, the Kd in data set [1] worked out at 5.6 µM; in data set [2], 2.8 ± 0.3 µM; in [3], 4.6 µM; in data set [4] it was 3.3 ± 0.5 µM.
For orientation: stoichiometry N means a count of units in the complex or per binding partner. For B2, the “stoichiometry N” value in data set [5] and in data set [6] was 1 each time.
Turning to B3, the dissociation constant (Kd) in data set [7] was 0.8 µM; in data set [2], less than 1 µM; in [3], 1.1 µM; in data set [4], 0.6 ± 0.3 µM.
Consider B4, for which the “stoichiometry N” value in [5] is 1.
For B5, in [8], the “stoichiometry N” value was determined as 2.
For the molecule B6, in [9], the “stoichiometry N” value amounted to 2. Also, the binding result in data set [10] is recorded as “binds”.

For the origin of these results see PMC7337490, “Molecular basis of MKLP2-dependent Aurora B transport from chromatin to the anaphase central spindle” (The Journal of Cell Biology, 2020).
